The target in this assay is LexA-DP-1 (pLEX(HIS).DP-1): complete bacterial LexA protein fused to DP-1 from residue 59 to 410 (bacterial; murine) (UniProt Q08639).

Where only a bound is given, the exact number is not on record here.

In turn, “GAD-E2F-5 (pGAD.E2F-5): entire murine E2F-5 as a hybrid with the activation domain of the yeast GAL4 protein (768-881) (from UniProt P04386)” showed a transcriptional activity of the E2F site reporter p4x WT CYC1 in yeast greater than 6 fold.

The record behind these values is US20030022260A1.
